In US20140179593A1 (published 2014):
Positions of bridges follow the written chain, without caps; N, C: chain ends. Non-standard residues stand in square brackets, D forms with d. S5 = C=CCCC[C@](C)(N)C(=O)O

Experiments:
[1] = molecular target: T1, hDcn1^P (residues 62 to the C-terminal residue 259 of hDcn1, aka SCCRO or DCUN1D1) (Homo sapiens, UniProt Q96GG9 62-259); experiment: ITC; against Acetyl-hUbc12^1-12
T1 construct: Expressed as a GST fusion in E. coli; GST released by TEV protease; also called DCUN1D1^P; PONY domain of hDcn1
Procedure: (§1) Specifically, Phe5 and Gln9 were replaced with (S)-2-(4′-pentenyl) alanine and these side-chains were covalently linked to test the effect of “stapling” an acetylated Ubc12 peptide into a helix (Bird et al. (2008) Methods Enzymol 446:369-386).
(§2) Protein samples were buffer matched by desalting over a NAP-5 column (GE Healthcare) into 50 mM Hepes, 125 mM NaCl, 1 mM BME, pH 7.0 (ITC buffer). Peptides were dissolved by weight to a final concentration of 10 mM in ITC buffer and diluted further in ITC buffer as required for the experiments. […] The peptide ligands (4 mM) were constantly injected (1.5 μl). The interval time between each injection was 3 minutes and the duration of each injection was 3 seconds. […] Peptide ligands (250 μM) were constantly injected (2.5 μl). The interval time between each injection was three minutes and the duration of each injection was 5 seconds. […] The interval time between each injection was 3 minutes and the duration of each injection was 5 seconds. Obtained spectra were evaluated using Origin (V 7.0) to determine heats of binding and Kd values.

[2] = molecular target: T2, hE1 for Nedd8 (APPBP1-UBA3, NAE1-UBA3) (Homo sapiens, UniProt Q13564 18-534; Q8TBC4 22-463, limits assumed); experiment: not named in the sentence (ITC in Table 25)
T2 construct: Heterodimer of NAE1 and UBA3, expressed in E. coli as described previously
T2 sequence 1: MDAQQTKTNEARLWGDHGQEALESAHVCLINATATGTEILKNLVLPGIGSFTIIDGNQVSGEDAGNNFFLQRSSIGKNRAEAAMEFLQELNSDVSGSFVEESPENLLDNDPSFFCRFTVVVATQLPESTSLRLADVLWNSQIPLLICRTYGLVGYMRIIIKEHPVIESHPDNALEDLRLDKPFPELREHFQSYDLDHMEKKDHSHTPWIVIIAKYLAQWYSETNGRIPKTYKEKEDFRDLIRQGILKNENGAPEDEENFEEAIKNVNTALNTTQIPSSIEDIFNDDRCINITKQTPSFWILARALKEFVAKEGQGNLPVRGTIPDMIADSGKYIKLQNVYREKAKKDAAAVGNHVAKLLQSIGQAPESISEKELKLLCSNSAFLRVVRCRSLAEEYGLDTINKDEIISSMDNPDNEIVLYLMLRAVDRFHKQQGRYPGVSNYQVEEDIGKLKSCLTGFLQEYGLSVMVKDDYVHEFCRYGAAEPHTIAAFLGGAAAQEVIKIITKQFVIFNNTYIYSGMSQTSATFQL
T2 sequence 2: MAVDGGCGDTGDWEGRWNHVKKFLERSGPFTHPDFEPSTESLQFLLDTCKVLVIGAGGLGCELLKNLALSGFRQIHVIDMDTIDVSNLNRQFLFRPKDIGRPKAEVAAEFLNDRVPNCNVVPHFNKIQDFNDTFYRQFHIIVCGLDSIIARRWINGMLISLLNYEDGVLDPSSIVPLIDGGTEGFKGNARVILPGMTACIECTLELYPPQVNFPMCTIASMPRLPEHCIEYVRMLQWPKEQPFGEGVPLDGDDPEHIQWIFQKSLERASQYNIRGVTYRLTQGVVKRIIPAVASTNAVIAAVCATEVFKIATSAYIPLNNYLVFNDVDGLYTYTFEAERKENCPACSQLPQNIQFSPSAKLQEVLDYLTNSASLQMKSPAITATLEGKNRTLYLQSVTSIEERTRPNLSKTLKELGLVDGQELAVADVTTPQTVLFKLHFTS
Procedure: as §1, §2

T1 sequence (Q96GG9 62-259): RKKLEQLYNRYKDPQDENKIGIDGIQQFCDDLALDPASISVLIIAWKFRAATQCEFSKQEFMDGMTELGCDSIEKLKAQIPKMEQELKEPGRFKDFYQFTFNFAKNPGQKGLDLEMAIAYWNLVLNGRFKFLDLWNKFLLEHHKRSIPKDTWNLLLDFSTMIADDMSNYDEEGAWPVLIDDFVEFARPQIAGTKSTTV

- fold improvement of binding over the unstapled peptide [1]: 14 fold
- binding result [2]: no binding
B1: Acetyl-hUbc12^1-12(5:9Staple) (peptide)
peptide: Ac-MIKL[S5]SLK[S5]QKK-NH2
modifications: staple 5-9
notes: Printed Ac-MIKLXSLKXQKK-NH2, X = 2-(4-pentenyl)alanine; also called stapled helical peptide
